Tested on: collagen

Substance: N-terminally truncated recombinant collagenase G (ColG) from Clostridium histolyticum, residues Tyr119-Lys1118, with N-terminal His-tag and TEV cleavage site
- fluorescence intensity, in vitro collagenase activity assay: where all the reaction components were included (two most right bars) significantly higher fluorescence was detected

Substance: commercial collagenase (C.COL) (Sigma-Aldrich)
- collagenase activity relative to COLG: the activity of C.COL was significantly higher, increase of about 30%-40%, than that of COLG
- fluorescence intensity, in vitro collagenase activity assay: where all the reaction components were included (two most right bars) significantly higher fluorescence was detected

— patent publication US20260083641
